Measurements as given in patent US20200055937A1 (REMD BIOTHERAPEUTICS, published 2020).
Where a chain is given by its changes, count along the chain named. Values belong to the binder of their own block, whether it stands above or below them.

Columns and labels:
CTLA4-Fc [1] = target: T1, CTLA4-Fc (UniProt P16410 36-161, limits assumed); experiment: cell-based or functional assay
T1 sequence (looked up): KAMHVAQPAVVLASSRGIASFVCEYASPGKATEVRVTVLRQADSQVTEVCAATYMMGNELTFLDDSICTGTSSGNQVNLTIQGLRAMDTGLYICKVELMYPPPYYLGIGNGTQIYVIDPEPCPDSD

cyno Macaque CTLA-4 = target: T2, cyno Macaque CTLA-4 (cyno Macaque, UniProt G7PL88 36-161); experiment: ELISA, cyno CTLA-4 binding
T2 construct: ELISA antigen; construct not described; also called CynoCTLA-4; cyno CTLA-4
T2 sequence: T1 sequence (looked up) with S14N, I18T, L106M

human CTLA-4 [2] = target: T3, human CTLA-4 (human, UniProt P16410 36-161, limits assumed); experiment: ELISA, human CTLA-4 binding
T3 construct: also called HuCTLA-4; human cytotoxic T lymphocyte antigen-4
T3 sequence: T1 sequence (looked up)

murine CTLA-4 = target: T4, murine CTLA-4 (murine, UniProt P09793 36-161, limits assumed); experiment: ELISA, murine CTLA-4 binding assay
T4 construct: ELISA antigen; construct not described; also called mouse CTLA-4

human CTLA-4 [3] = target: T3, human CTLA-4; experiment: ligand blocking assay with purified proteins; competitor CD86
human CTLA-4 [4] = target: T3, human CTLA-4; experiment: ratio of the IC50 for blocking CD80 to the IC50 for blocking CD86 on CTLA-4
human CTLA-4 [5] = target: T3, human CTLA-4; experiment: ligand blocking assay with purified proteins; competitor CD80; CD80 as competing ligand, purified proteins
CTLA4-Fc [6] = target: T1, CTLA4-Fc; experiment: cell-based or functional assay; remark: listed apart in the source
CTLA4-his [7] = target: T5, CTLA4-his (UniProt P16410 36-161, limits assumed); experiment: SPR Biacore 8k, purified antibody captured on chip, CTLA4-his as analyte
T5 construct: construct not described; also called Ag CTLA4-his; Antigen CTLA4-his; not shown: his tag
T5 sequence (looked up): T1 sequence (looked up)
Description: (§1) The affinities of purified antibody binding to CTLA4-his was determined using a Surface Plasmon Resonance (SPR) biosensor, Biacore 8k. Antibodies were immobilized on the sensor chip through capture method. Antigen CTLA4-his was used as the analyte. The data of dissociation (kd) and association (ka) rate constants were obtained using Biacore 8k evaluation software. The equilibrium dissociation constants (KD) were calculated from the ratio of kd over ka.

CTLA4-his [8] = target: T5, CTLA4-his; experiment: SPR Biacore T200, antibody from supernatant captured by anti-human Fc, CTLA4-his injected
Description: (§2) Affinity ranking of the fifteen humanized antibodies was determined using a Surface Plasmon Resonance (SPR) biosensor, Biacore T200 (GE Healthcare). Anti-human Fc gamma specific antibody was immobilized onto the sensor chip using amine coupling method. […] After equilibration, Ag CTLA4-his was injected for 300 seconds (association phase) followed by the injection of running buffer for 600s (dissociation phase). Responses of reference flow cell (flow cell 1) were subtracted from those of humanized antibodies flow cells during each cycle. The surface was regenerated before the injection of other humanized antibodies. The process was repeated until all antibodies are analyzed. The off-rates of humanized antibodies were obtained from fitting the experimental data locally to 1:1 interaction model using the Biacore 8K evaluation software. The antibodies were ranked by their dissociation rate constants (off-rates, kd).

CTLA4-his [9] = target: T5, CTLA4-his; experiment: SPR Biacore T200, antibody from supernatant captured by anti-human Fc, CTLA4-his injected; supernatant antibody, off-rate ranking, 600 s dissociation
Description: as §2

human CTLA-4 [10] = target: T3, human CTLA-4; experiment: ligand blocking assay with purified proteins; competitor CD80
CTLA4-Fc [11] = target: T1, CTLA4-Fc; experiment: SPR Biacore T200, CTLA4-Fc amine-coupled, antibody as analyte
Description: (§3) Antigen CTLA4-Fc was immobilized on the sensor chip through amine coupling method. Antibody was used as the analyte. The data of dissociation (kd) and association (kₐ) rate constants were obtained using Biacore T200 evaluation software. The apparent equilibrium dissociation constants (KD) were calculated from the ratio of kd over kₐ.

CTLA4-Fc [12] = target: T1, CTLA4-Fc; experiment: SPR Biacore T200, CTLA4-Fc amine-coupled, antibody as analyte; apparent KD
Description: as §3

CTLA4-his [13] = target: T5, CTLA4-his; experiment: SPR Biacore 8k, purified antibody captured on chip, CTLA4-his as analyte (as the text says; same values as Table 5)
CTLA4-his [14] = target: T5, CTLA4-his; experiment: SPR Biacore 8k, purified antibody captured on chip, CTLA4-his as analyte; purified antibody, Biacore 8k
Description: as §1

IC50 (nM), IL-2 secreted by Jurkat cells co-cultured with CHO/CD80 cells, Experiment 1 (CTLA4-Fc [1]): 19.3 nM | IC50 (nM), IL-2 secreted by Jurkat cells co-cultured with CHO/CD80 cells, Experiment 2 (CTLA4-Fc [1]): 18.5 nM | EC50 (cyno Macaque CTLA-4): 0.01 nM | EC50 (human CTLA-4 [2]): 0.058 nM | binding result (murine CTLA-4): no binding | IC50 (human CTLA-4 [3]): 0.365 nM | CD80/CD86 Blocking Ratio (human CTLA-4 [4]): 6.49 | IC50 (human CTLA-4 [5]): 2.37 nM
B1: MAb A1 (16A9E9) (antibody, V domains shown)
VH: DVQLQESGPGLVKPSQSLSLTCSVTGDSITSGYYWNWIRQFPGNKLEWMGYISYDGINNYYPSLENRISITRDTSRNQFFLKLNSVTTEDTATYYCAREVVTPGVEVPAWYFDVWGTGTTVTVSS
VL: DIVLTQSPTSLTVSLGQRAIISCKASQSVSFAGTGLMHWYQQKPGQQPKLLIYRASNLEAGVPTRFSGSGSRTDFTLNIHPVEEDDAATYYCQQSREYPWTFGGGTTLEIN
notes: also called murine antibody A1

IC50 (nM), Jurkat cell activation assay of Example 2 (IL-2) (CTLA4-Fc [6]): 8.7 nM | Kd (CTLA4-his [7]): 0.339 nM | koff (CTLA4-his [7]): 0.000307 s⁻¹ | kon (CTLA4-his [7]): 904000 M⁻¹ s⁻¹ | Kd (CTLA4-his [8]): 0.684 nM | koff (CTLA4-his [8]): 0.000305 s⁻¹ | kon (CTLA4-his [8]): 446000 M⁻¹ s⁻¹
B2: Humanized Ab 11 (VH4 + VL2) (antibody, human IgG1, kappa)
heavy: not shown
light: DIVMTQSPLSLPVTPGEPASISCRSSKSLLHSNGITYLYWYLQKPGQSPQLLIYQMSNLASGVPDRFSSSGSGTDFTLKISRVEAEDVGVYYCAQNLELPLTFGGGTKVEIKRTVAAPSVFIFPPSDEQLKSGTASVVCLLNNFYPREAKVQWKVDNALQSGNSQESVTEQDSKDSTYSLSSTLTLSKADYEKHKVYACEVTHQGLSSPVTKSFNRGEC
notes: Humanized IgG1 derived from MAb A4

IC50 (nM), Jurkat cell activation assay of Example 2 (IL-2) (CTLA4-Fc [6]): 3.1 nM | Kd (CTLA4-his [7]): 0.0248 nM | koff (CTLA4-his [7]): 1.99e-05 s⁻¹ | kon (CTLA4-his [7]): 802000 M⁻¹ s⁻¹ | Kd (CTLA4-his [8]): ≤ 0.0452 nM | koff (CTLA4-his [8]): ≤ 1e-05 s⁻¹ | kon (CTLA4-his [8]): 221000 M⁻¹ s⁻¹
B3: Humanized Ab 14 (VH6 + VL3) (antibody, human IgG1, kappa, V domains shown)
VH: QVQLVQSGAEVKKPGASVKVSCKASGYKFTDHFINWVKQAPGQGLEWIGDINPNNGGTNSNQKFEGKATLTVDKSISTAYMELRRLRSDDTAVYYCARLRREYFYAMDYWGQGTLVTVSS
VL: DIVMTQSPLSLPVTPGEPASISCRSSKSLLHSNGITYLYWYLQKPGQSPQLLIYQMSNLASGVPDRFSSSGSGTDFTLKISRVEAEDVGVYYCAQNLELPLTFGGGTKLEIKR
notes: as for B2

IC50 (nM), Jurkat cell activation assay of Example 2 (IL-2) (CTLA4-Fc [6]): 3.1 nM | Kd (CTLA4-his [7]): 0.0142 nM | koff (CTLA4-his [7]): 1.03e-05 s⁻¹ | kon (CTLA4-his [7]): 727000 M⁻¹ s⁻¹ | Kd (CTLA4-his [8]): ≤ 0.0472 nM | kon (CTLA4-his [8]): 212000 M⁻¹ s⁻¹ | koff (CTLA4-his [9]): ≤ 1e-05 s⁻¹
B4: Humanized Ab 15 (VH7 + VL3) (antibody, human IgG1, kappa, V domains shown)
VH: B3 VH with K12V, V20I, A40N
VL: B3 VL
notes: as for B2

IC50 (nM), IL-2 secreted by Jurkat cells co-cultured with CHO/CD80 cells, Experiment 1 (CTLA4-Fc [1]): 11 nM | IC50 (nM), IL-2 secreted by Jurkat cells co-cultured with CHO/CD80 cells, Experiment 2 (CTLA4-Fc [1]): 13.2 nM | EC50 (cyno Macaque CTLA-4): 0.024 nM | EC50 (human CTLA-4 [2]): 0.034 nM | binding result (murine CTLA-4): no binding | IC50 (human CTLA-4 [10]): 0.579 nM | IC50 (human CTLA-4 [3]): 0.287 nM | koff (CTLA4-Fc [11]): 0.000551 s⁻¹ | kon (CTLA4-Fc [11]): 573000 M⁻¹ s⁻¹ | Kd (CTLA4-Fc [12]): 0.963 nM | CD80/CD86 Blocking Ratio (human CTLA-4 [4]): 2.01 | Kd (CTLA4-his [13]): 0.963 nM | koff (CTLA4-his [13]): 0.000551 s⁻¹ | kon (CTLA4-his [13]): 573000 M⁻¹ s⁻¹
B5: MAb A4 (13F10D7) (antibody, V domains shown)
VH: EVQLRQSGPELVKPGTSVKISCKASGYKFTDHFINWVKQNHGKSLEWIGDINPNNGGTNSNQKFEGKATLTVDKSSSTAYMELRSLTSEDSAVYYCARLRREYFYAMDYWGQGTSVTVSS
VL: DIVMTQAAFSNPVTLGTSASISCRSSKSLLHSNGITYLYWYLQKPGQSPQLLIYQMSNLASGVPDRFSSSGSGTDFTLRISRVEAEDVGVYYCAQNLELPLTFGAGTKLELK
notes: also called Murine MAb A4; murine antibody A4

koff (CTLA4-Fc [11]): 5.09e-05 s⁻¹ | kon (CTLA4-Fc [11]): 621000 M⁻¹ s⁻¹ | Kd (CTLA4-his [7]): 0.0131 nM | kon (CTLA4-his [7]): 765000 M⁻¹ s⁻¹ | Kd (CTLA4-Fc [12]): 0.082 nM | Kd (CTLA4-his [8]): 0.0602 nM | koff (CTLA4-his [8]): 2.59e-05 s⁻¹ | kon (CTLA4-his [8]): 430000 M⁻¹ s⁻¹ | koff (CTLA4-his [14]): ≤ 1e-05 s⁻¹
B6: chimeric IgG (antibody, V domains shown)
VH: B5 VH
VL: B3 VL with S7A, P8A, L9F, L11N, P15L, E17T, P18S, K79R, G105A, I111L
notes: Variable domains of MAb A4 on human IgG1 and kappa, expressed in HEK293; also called murine-human chimeric antibody derived from murine antibody A4
